Numbering of substitutions follows the chain as printed.
Assays:
[1] = biological target: T1, animal free recombinant human IL-6 (PeproTech Inc.) (human, UniProt P05231 30-212); test: ELISA, antigen coated at 5 ug/mL, HRP anti-human IgG Fc detection
T1 construct: Bought reagent, coated on the ELISA plate; also called interleukin-6
Method: (§1) The affinity of each antibody for an antigen was measured by ELISA method. As antigens of each antibody, human CD20/MS4A1 full-length protein, His tag (HEK293) (ACROBiosystems Inc.), recombinant human ErbB2/Her2 Fc chimera (R&D Systems Inc.), chicken egg white-derived lysozyme (Sigma-Aldrich), animal free recombinant human IL-6 (PeproTech Inc.) and interleukin 8 (CXCL8) (Shenandoah Biotechnology, Inc.) were used. Specific operations are as follows. A solution of various antigens diluted to 5 μg/mL with PBS was added to each well of a 96-well plate (Nunc), and the plate was incubated at 4° C. overnight. After removing the solution from each well, 1% BSA/PBS was added, and the plate was incubated at room temperature for 3 hours. The solution was removed from each well, and then the plate washed three times with PBST. An antibody solution was added to each well, and the plate was incubated at room temperature for 15 minutes. The solution was removed from each well, and then the plate washed three times with PBST. A solution of HRP-labeled anti-human IgG Fc antibody (Bethyl Laboratories, Inc.), HRP-labeled goat F(ab′)2 fragment anti-mouse IgG (H+L) (Beckman Coulter, Inc.) or HRP-conjugated streptavidin (Thermo Fisher Scientific Inc.) diluted to 0.3 μg/mL with 1% BSA/PBS was added to each well, and the plate was incubated at room temperature for 1 hour. The solution was removed from each well, and then the plate washed three times with PBST. Chromogenic reaction was performed using KPL TMB (registered trademark) Peroxidase Substrate (SeraCare Life Sciences, Inc.) and the chromogenic reaction was stopped using KPL TMB (registered trademark) Peroxidase Stop Solution (SeraCare Life Sciences, Inc.). Absorbance at 450 nm was measured using a SpectraMax (registered trademark) 190 microplate reader (Molecular Devices, LLC).

[2] = biological target: T2, interleukin 8 (CXCL8) (Shenandoah Biotechnology, Inc.) (UniProt P10145 28-99, limits assumed); test: as above
T2 construct: Bought reagent, coated on the ELISA plate; also called IL-8
T2 sequence (looked up): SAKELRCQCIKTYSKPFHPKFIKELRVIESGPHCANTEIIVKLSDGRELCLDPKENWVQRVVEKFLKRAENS
Method: as §1

[3] = biological target: T3, human CD20/MS4A1 full-length protein, His tag (HEK293) (ACROBiosystems Inc.) (human, UniProt P11836 1-297); test: as above
T3 construct: mature; Bought reagent, coated on the ELISA plate; also called antigen of rituximab; not shown: His tag
T3 sequence (looked up): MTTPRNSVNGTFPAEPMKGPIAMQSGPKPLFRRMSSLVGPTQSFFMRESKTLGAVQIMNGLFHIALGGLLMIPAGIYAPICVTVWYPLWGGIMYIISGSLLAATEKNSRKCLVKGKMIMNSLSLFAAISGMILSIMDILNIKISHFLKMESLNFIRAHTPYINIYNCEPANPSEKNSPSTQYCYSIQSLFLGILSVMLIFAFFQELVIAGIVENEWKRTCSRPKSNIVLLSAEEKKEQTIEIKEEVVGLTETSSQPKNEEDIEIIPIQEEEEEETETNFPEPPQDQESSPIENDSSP
Method: as §1

[4] = biological target: T4, recombinant human ErbB2/Her2 Fc chimera (R&D Systems Inc.) (human, UniProt P04626 23-652); test: ELISA, antigen coated at 5 ug/mL, biotin-labeled antibody, HRP-streptavidin
T4 construct: Bought reagent, coated on the ELISA plate; also called antigen of trastuzumab; Fc part of the bought chimera not given
Method: as §1

B1: anti-IL-6 antibody (mouse/human chimeric antibody), light chain FR3 not substituted (antibody, human IgG1, kappa, V domains shown)
VH: EVQLQQSGPELVKPGASVKMSCKASGYTFTSYVMHWVKQKPGQGLEWIGYINPYNDGTKYNEKFKGKATLTSDKSSSTAYMELSSLTSEDSAVYYCAREGYGNLERDCWGQGTSVTVSS
VL: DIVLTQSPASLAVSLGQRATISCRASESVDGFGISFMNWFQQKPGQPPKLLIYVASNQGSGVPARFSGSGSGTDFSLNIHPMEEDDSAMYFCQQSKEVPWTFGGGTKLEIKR
notes: also called WT; anti-interleukin (IL)-6 antibody
**Q.** Which results are given for B1?
**A.** EC50 [1]: 0.041 µg/mL; EC50 ratio [1]: 1 ratio (EC50 in WT taken as 1.0)

B2: R5 variant of anti-IL-6 antibody (antibody, human IgG1, kappa, V domains shown)
VH: B1 VH
VL: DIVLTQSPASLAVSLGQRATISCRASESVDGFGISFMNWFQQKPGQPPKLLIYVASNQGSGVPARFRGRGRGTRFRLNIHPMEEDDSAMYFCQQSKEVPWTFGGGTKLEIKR
notes: IgG; Light chain positions 63, 65, 67, 70 and 72 (Chothia) are arginine; also called anti-IL-6 antibody R5
**Q.** For B2, which EC50 [1] is on record?
**A.** The EC50 was 0.0327 µg/mL.

**Q.** What about the EC50 ratio [1] of the same binder?
**A.** The EC50 ratio was 1.3 ratio (EC50 in WT taken as 1.0).

B3: R3 variant of anti-IL-8 antibody (antibody, human IgG1, kappa, V domains shown)
VH: EVKLVESGGGLVKPGGSLKLSCAASGFTFNNYAMSWVRQTPEKRLEWVASISSGGNTYYPDSVKGRFTLSRDNARNILYLQMSRLRSEDTAMYYCARDKLRLPNWYFDVWGAGTTVTVSS
VL: DIVLTQSPPSLAVSLGQRATISCKASQSVDYDGDSYMNWYQQKPGQPPKVLIYGASNLESGIPARFRGRGRGTDFTLNIYPVEEEDAATYYCQQSNEDPPTFGGGTKLEIKR
notes: IgG; Light chain positions 63, 65 and 67 (Chothia) are arginine; also called anti-IL-8 antibody R3
**Q.** How did the EC50 [2] turn out when B3 was run?
**A.** Its EC50 is 0.269 µg/mL.

**Q.** What about the EC50 ratio [2] of the same binder?
**A.** The EC50 ratio was 1.4 ratio (EC50 in WT taken as 1.0).

B4: R4 variant of anti-IL-8 antibody (antibody, human IgG1, kappa, V domains shown)
VH: B3 VH
VL: B3 VL with D74R
notes: IgG; Light chain positions 63, 65, 67 and 70 (Chothia) are arginine; also called anti-IL-8 antibody R4
**Q.** Which EC50 [2] does the source give for B4 here?
**A.** Its EC50 is 0.0598 µg/mL.

**Q.** What about the EC50 ratio [2] of the same binder?
**A.** Its EC50 ratio is 6.5 ratio (EC50 in WT taken as 1.0).

B5: anti-IL-8 antibody (mouse/human chimeric antibody), light chain FR3 not substituted (antibody, human IgG1, kappa, V domains shown)
VH: B3 VH
VL: B3 VL with R67S, R69S, R71S
notes: also called WT; anti-IL-8 antibody WT
**Q.** With B5 as the binder, how does the EC50 [2] read?
**A.** Its EC50 is 0.39 µg/mL.

**Q.** And the EC50 ratio [2]?
**A.** The EC50 ratio was 1 ratio (EC50 in WT taken as 1.0).

B6: R3 variant of rituximab (antibody, human IgG1, kappa, V domains shown)
VH: QVQLQQPGAELVKPGASVKMSCKASGYTFTSYNMHWVKQTPGRGLEWIGAIYPGNGDTSYNQKFKGKATLTADKSSSTAYMQLSSLTSEDSAVYYCARSTYYGGDWYFNVWGAGTTVTVSA
VL: QIVLSQSPAILSASPGEKVTMTCRASSSVSYIHWFQQKPGSSPKPWIYATSNLASGVPVRFRGRGRGTSYSLTISRVEAEDAATYYCQQWTSNPPTFGGGTKLEIKR
notes: IgG; Light chain positions 63, 65 and 67 (Chothia) are arginine; Heavy chain is that of rituximab; also called rituximab R3
**Q.** Which results are given for B6?
**A.** EC50 [3]: 1.71 µg/mL; EC50 ratio [3]: 74.6 ratio (EC50 in WT taken as 1.0)

B7: R5 variant of rituximab (antibody, human IgG1, kappa, V domains shown)
VH: B6 VH
VL: B6 VL with S69R, S71R
notes: IgG; Light chain positions 63, 65, 67, 70 and 72 (Chothia) are arginine; also called rituximab R5
**Q.** How did the EC50 [3] turn out when B7 was run?
**A.** Its EC50 is 0.027 µg/mL.

**Q.** And the EC50 ratio [3]?
**A.** Its EC50 ratio is 4710 ratio (EC50 in WT taken as 1.0).

B8: rituximab (mouse/human chimeric antibody), light chain FR3 not substituted (antibody, human IgG1, kappa, V domains shown)
VH: B6 VH
VL: B6 VL with R62S, R64S, R66S
notes: also called WT; rituximab WT
**Q.** How did the EC50 [3] turn out when B8 was run?
**A.** Its EC50 is 127 µg/mL.

B9: R3 variant of trastuzumab (antibody, human IgG1, kappa, V domains shown)
VH: not shown
VL: DIQMTQSPSSLSASVGDRVTITCRASQDVNTAVAWYQQKPGKAPKLLIYSASFLYSGVPSRFSGRRRGTRFTLTISSLQPEDFATYYCQQHYTTPPTFGQGTKVEIKR
notes: IgG; Light chain positions 65, 67 and 70 (Chothia) are arginine; Labeled with biotin (Biotin Labeling Kit-NH2) before the ELISA; also called trastuzumab R3
**Q.** For B9, which EC50 [4] is on record?
**A.** Its EC50 is 0.0252 µg/mL.

**Q.** And the EC50 ratio [4]?
**A.** Its EC50 ratio is 2 ratio (EC50 in WT taken as 1.0).

B10: R4 variant of trastuzumab (antibody, human IgG1, kappa, V domains shown)
VH: not shown
VL: B9 VL with S63R
notes: IgG; Light chain positions 63, 65, 67 and 70 (Chothia) are arginine; Labeled with biotin (Biotin Labeling Kit-NH2) before the ELISA; also called trastuzumab R4
**Q.** For B10, which EC50 [4] is on record?
**A.** Its EC50 is 0.0342 µg/mL.

**Q.** What about the EC50 ratio [4] of the same binder?
**A.** Its EC50 ratio is 1.5 ratio (EC50 in WT taken as 1.0).

Reference: US20230203435A1 (SYSMEX, published 2023)
